Target: HIV-1JR-FL envelope glycoproteins gp120/gp41 (HIV-1 JR-FL)
Assay: cell-based or functional assay

CD4-IgG2 (from UniProt P01730 26-203; P01730 26-203) (Fc fusion)
IC90, inhibition of HIV-1JR-FL Env-mediated cell-cell fusion (RET assay): 11 nM
IC90, inhibition of HIV-1JR-FL virus-cell fusion (luciferase reporter virus, HeLa-CD4+CCR5+ cells): 12 nM
K (equal to IC50), inhibition of env-mediated membrane fusion (RET) between HeLa-EnvJR-FL and PM1 cells: 0.31 µg/mL
activity in the RET assay after co-incubation of HeLa-Env cells, PM1 cells and inhibitor for 2 h at 25° C., washing and warming to 37° C.: 12 fold lower
potency in the washout RET assay (drug pre-incubated with HeLa-Env cells, washed, then PM1 cells added) against the standard assay: 6 fold lower

T-20 (peptide)
IC90, inhibition of HIV-1JR-FL Env-mediated cell-cell fusion (RET assay): 22 nM
IC90, inhibition of HIV-1JR-FL virus-cell fusion (luciferase reporter virus, HeLa-CD4+CCR5+ cells): 45 nM
K (equal to IC50), inhibition of env-mediated membrane fusion (RET) between HeLa-EnvJR-FL and PM1 cells: 0.017 µg/mL
increase in IC50 in the RET assay after co-incubation of HeLa-Env cells, PM1 cells and inhibitor for 2 h at 25° C., washing and warming to 37° C. (fold increase in IC50): > 250

From US20020106374A1
